# ± gives the standard error. Fewer inactive variants are shown than the library holds.
# B1: glmS ribozyme (parent)
# chain: AUAAAAGCGCCAGAACUACAGAAAUGUAGUUGACGAGGAGGAGGUUUAUCGAAUUUUCGGCGGAUGCCUCCAAA
# Experiments:
# Conditions in all cases: with glucosamine-6-phosphate
# glucosamine-6-phosphate [1] = variants of: B1; assay: self-cleavage kobs at 640 uM GlcN6P; higher = faster cleavage; RNA array
# In short: (§1)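 E. coli RNA polymerase transcribed barcoded ribozyme variants in situ on sequenced MiSeq chips, which were tracked via a hybridised Cy3 probe at 37 °C. Tiles were imaged over ~14 h after glucosamine-6-phosphate (40 μM to 10 mM) in HEPES/KCl/Mg(OAc)2 buffer was flowed in. Normalised per-tile medians were fit to one- or two-exponential decays for kobs, and kcat and KM came from weighted Michaelis–Menten fits.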
# glucosamine-6-phosphate [2] = variants of: B1; assay: self-cleavage kobs at 2500 uM GlcN6P; higher = faster cleavage; RNA array
# In short: as §1
# glucosamine-6-phosphate [3] = variants of: B1; assay: self-cleavage kobs at 10000 uM GlcN6P; higher = faster cleavage; RNA array
# In short: as §1
Variant,self-cleavage kobs at 640 uM GlcN6P (glucosamine-6-phosphate [1]) [s⁻¹],self-cleavage kobs at 2500 uM GlcN6P (glucosamine-6-phosphate [2]) [s⁻¹],self-cleavage kobs at 10000 uM GlcN6P (glucosamine-6-phosphate [3]) [s⁻¹]
G7C C58G,< 1e-05,–,–
C11U A15U C70G,0.000134 ± 4.8e-05,–,–
C8U U47C C67G,< 1e-05,–,–
U46G A53U G63C C67G,< 1e-05,–,–
A39C C58G C67G C71G,< 1e-05,–,–
G7C C8U,< 1e-05,–,–
C10U C50U A53C,< 1e-05,–,–
G38U U57A C71G,< 1e-05,< 1e-05,–
A6G A12C G43C,< 1e-05,< 1e-05,–
G9U U55C G62U,< 1e-05,–,–
G29C U30C U49G,< 1e-05,–,< 1e-05
G7U U30C C61A,< 1e-05,–,–
A6U G41A G44C C67G C70G,< 1e-05,< 1e-05,–
G7U U54A,< 1e-05,< 1e-05,< 1e-05
A15C U30C U31G U69G,0.00017 ± 4.8e-05,–,–
A33G A36U C70G,0.000157 ± 5.3e-05,–,–
G13C U57C C58A,< 1e-05,–,–

Variant,self-cleavage kobs at 640 uM GlcN6P (glucosamine-6-phosphate [1]) [s⁻¹],self-cleavage kobs at 2500 uM GlcN6P (glucosamine-6-phosphate [2]) [s⁻¹],self-cleavage kobs at 10000 uM GlcN6P (glucosamine-6-phosphate [3]) [s⁻¹]
G29U A53C G62C,< 1e-05,–,–
C58G A64G U65A G66U C67G U69C,9.79e-05 ± 2.9e-05,–,–
U46G C50A C67G,0.000631 ± 0.00012,0.000506 ± 0.00017,–
C8A C16A G32C A42G,< 1e-05,–,–
C11G G29C A52G U55A C58A,< 1e-05,< 1e-05,< 1e-05
A6C G37U U49A,< 1e-05,–,< 1e-05
C11G C16A C50G U65G,0.000148 ± 5.2e-05,–,–
G29C U30G A33U C58U,< 1e-05,< 1e-05,–
A12C G29A G43U C71G,< 1e-05,< 1e-05,–
A14G G32C U45A C70G,< 1e-05,–,–
A12C U49A A52C,< 1e-05,–,–
A39U U46A,0.000305 ± 7.5e-05,0.000711 ± 0.00023,0.00219 ± 0.00035
U31G A36U G38U A48U A53C G59C A64C,< 1e-05,–,–
G13U C50A A64U U65G,< 1e-05,< 1e-05,–
A14G G40U G41C,7.7e-05 ± 1.5e-05,0.00015 ± 3.4e-05,–
C34G G37C,< 1e-05,–,< 1e-05
A6G A42C A52U C68A,< 1e-05,< 1e-05,–

# From the supplement of paper PMC7125110
